A short description of this data set: soluble on expression in E. coli; label from the status in PepcDB or PDB records.
As for “MTIDCHEDRRVLLVPHTGRPQNVASAALAAELLDDSGVGVRVLVPAEDTTVATHPVLGQFERVSHSPQATQSVDLVLVLGGDGTFLRAADLAHGADLPVLGINLGHVGFLAEWEKDSLDEAVRRVTKGSFRIEERMTLDVSVYDSNGTAIGRGWALNEVSIENSNRSGVLDATLEIDSRPVSSFGCDGIIVSTPTGSTAYAFSAGGPVLWPELDAILVVPNNAHALFTKPLVVSPRSSVAVESHPSAFPATAVMDGFRSISVPPGARVEVKRGSRSIKWVRLDDIPFTDRLVTKLRLPVEGWRGPKNMIPQINPHSALEHHHHHH”, the “soluble on expression in E. coli” value is reported as “soluble”.
As to “RMLTDRRVHDADFLTDELGLTSLGLVNHQHHHSMKKQALNLNGGYHTHNDRTSSQAMKRV”, the “soluble on expression in E. coli” value is recorded as “not soluble”.
“MLTIAHRLQRESISSGRHSSRISAVFSSPIRASSESRSQHAASSSSSIVSRPESVDEDEEEDGVWPSVTSGGVLVGCACSNSSLTRNESIVVSEGSQALYIASAATAMNGDSVRRRGGDAPDDDEAAGAAPVPAEECNLDALFERFFGDGGADAIRFEPMLPRVYELTLPSIDSRLNFINVGRRHAAFLRHVYGGCDRCEHAAVLNEKMKLFTAVITKLLDVNGILERRETTD”: the “soluble on expression in E. coli” value is recorded as “not soluble”.
In the case of “AIATDCEWFDMTWGSSASSGYCSQSDSDEHELELFYTARTSLRKSRKCRDKDEQSEVDWRKQDLSVTEIQQKVKEYNAQVNSNLFMVLNRDGSYTGFIKVQFKLARPVSLPPPRSVSSSSISSSCLGWDGGCQERTSFYLPRDTVKHLHISSSTRAREVIQALLNKFTVVDNPAKYSLYERSQRDNQVYLRKLADDECPLFLRLCAGPNEKVLSLVLKENETGEVNWDAFSFPELQNFLRILQREEEDHVRQIIRRYTLARDKMKEAMKNFSTPG”, the “soluble on expression in E. coli” value is recorded as “soluble”.
As for “MKILWIDLNSSYAHSSLALPALHAQIMTDPSIEWEIVSATINENTGMIVDEIYRHRPDILAATTWLFNHEQLMHVASRVKALLPEACLVLGGPEFLGDNEEFLRKNPFVDCVFRGEGEEVFPQWLTCWNHPEQWHTVPGLCYLTPNKEYKDNGIARVLNFAGLVPPEQSRFFNWSKPFVQLETTRGCFNTCAFCVSGGEKPVRTLSIESIRERLQLIHAHGIKNVRVLDRTFNYNPRRAKELLRLFLEFHPDIRFHLEIHPALLSEELKEELSLLPKGLLHLEAGIQSLREPVLEKSRRMGKLSDALDGLRFLCALPNMETHADLIAGLPLYHLHEIFEDVRTLAGYAAGEIQLESLKLLPGTEMRRRAEELGIKYSPLPPYEVLQTHEISVSELQTARQLSRLLDGFYNTPAWQALTRELILNDEQFLHRFLAYLTKANLIDQPMSLEKRGLILYEFCKQNYPEYQIQAAIAWIEAGMSLKKLPAEKVWTKRQIPPATWNIIYGEYKESLRLCFLPADEKGEHGYWFGFESEIQKASPVFKART”, the “soluble on expression in E. coli” value is listed as “not soluble”.
The entry for “ADERLQFTATTLSGAPFDGASLQGKPAVLWFWTPWCPFCNAEAPSLSQVAAANPAVTFVGIATRADVGAMQSFVSKYNLNFTNLNDADGVIWARYNVPWQPAFVFYRADGTSTFVNNPTAAMSQDELSGRVAALTS” is “soluble”; for “MGSDKIHHHHHHMEGIKMRSVVVKEPGQLNIESRPVPVPGAHEVRVKIAFAGICGSDVHIYHGHNPFAKYPRVIGHEFYGIIDAVGEQVSPARIGERVAVDPVVSCGHCYPCSVGRPNVCTQLQVIGVHRDGGFSDYACVPAKNAWRIPEAISDRQATMVEPFTIAANITAQLQPTAQDIALVYGAGPMGLTIIQALKGVYGVKQVIVVDRIAERLQMARENGADLTLDNTDQPLAEQLAQRQLAPTLVIDAACHPAILQEAILLASPAARIGILGFSGEASTLTQQSITSKEISIFSSRLNSGRFPLVIDWMEKGLIRPEALITHCMPLEQVKEAMEIFANDRKTCCKVLLQLG” it is “not soluble”; for “MAHHHHHHMSATPPPPPPPSSNASTGYPHTRASPGTYRGAGRGAYSRGPSYQSSGSSPSSSPIYTSGPSRRGGGNTRVRVHTYGFVHADPAASLAAAPPASHTSAPRATPDVATPPLPSASSAASPPLSSISSDVLSSLNASVQESLSGYLYTDAIELAQRLFDLEASYAHLHLLAHCYTVSGATGTAYRLLQHYYPFLELHVTRPRTAGASTSAAGGAAGGVGSGVLPFDARRTWTASYGVHPSQHPFSSGMPSATAAVTFSASSNENNLTSDEFELGYETVDLQSQWDCQYLLGVCCYRTQHYEDGARVLSQLLYVCHQVTTTSSVLRRRLQQLRQQQQQVTVRSDTSEEDDAGVAAAVRATERQLAGLCLRDGGAHFAGALLVGSVREASPAAPDRG” it is “not soluble”.
The entry for “MGSDKIHHHHHHMTDVHASTQALKPARLLADSPSRFPGESAEYRRARNDLLVEEIELRRHIERVAAQRRALPAGGVVPEDYRFMGEAGPVALSEMFGAHDTLVTYNWMFGPQRVRPCPMCTSLLSAYDGEMPDILQRVAFAVIARAPIERLVAFGKERGWRHLRLYSSGGNSFNRDYAAEDPAGDDHPAFNVFTRSGGTVRHFWAEEMGPSTADPGQDPRGAPDVMPIWTVLDMTPGGRGTDWYPKLEYDTAPG” is “not soluble”; for “MGHHHHHHSHMEFRSVAERICGDIVLSENSGEALRKWRSIFNASQSDLARKLGISPSVISDYESGRRKPGTAFLKKFVCALIELDGERGYQVLSKYRYFLESDHKAVLDIAEYQKTAEPSEFCEVIEGKMLTHFDKAIHGHTVIDSINAILSLNAFDFYRLYGLTSERALIFTRVSTGRSPMVAVRVSNLKPSAVVLHGLEAERVDEMAKKIAEIERIPLVVTEIAIGEIVKRLRRKFA” it is “not soluble”.
The entry for “TSQIRQNYSTEVEAAVNRLVNLHLRASYTYLSLGFFFDRDDVALEGVGHFFRELAEEKREGAERLLEFQNDRGGRALFQDVQKPSQDEWGKTQEAMEAALAMEKNLNQALLDLHALGSARADPHLCDFLESHYLDKEVKLIKKMGNHLTNLRRVAGPQPAQTGAPQGSLGEYLFERLTLKHD” is “soluble”; for “MEILRRECGAVEENAYIVKLSSGIDFIIDPGFSSSEWVLENAKNPKAILITHGHYDHVWDGAQLSKLLKNTPIYAPKDDVFMLENDIFHLGMPVFSPNFSVPCNKGCTTLEIANTTIKYWHFPGHTPGCSIIEIEGVIFSGDFIFYRSIGRYDFPYSNEKDMKESLLRFQNLDFPKDIEIYPGHGDKTSFFAEREHSKIWVSRMALEHHHHHH” it is “not soluble”; for “MSQIIIKTPQEIEKMRVAGRLAAEVLEMITPFVKEGVTTAELDKICHEYIVKEQDAYPAPLNYHGFPKSICASINHVVCHGIPADKKLKNGDILNIDITVKKDGYHGDTSKMFMIGEPSVMAKKLVEVTHECLWKGIEVVKPGNHFGDIGAAIEKHAKKFGYSIVDAFCGHGIGANFHEPPHVMHHGKAGTGAMFEEGMIFTIEPMINIGKRAVSVLKDGWTAVTKDRSLSAQWEHTILVTKDGYEVLTLREEEKN” it is “not soluble”.
As to “MGSDKIHHHHHHMSLPLRSIHYFVEVARCESFSLAAERLHVSQSAVSHQVALLEGYLGDDLFVRRGRKILLTAVGENYFNEVAGAINAIEGATANVRQYDTRQVKLAVHGSLAVKWLIPALDEFRQRYPNVELTLQMLTQDGNFDTQWADCFITTQPPGMGYQRYHLYDETLKPYCSKALWAEAHRLESAGDLIQYPLLSAISAFASGEPGTDWQRWFKKANLRLPVSARVHHFSHLLLAAEAAKYGQGIALLNEFMTTEQEREESLFELPFHSIQTDDSFYFVYPSSTAKSPGLESLGDWLVALCRTRH”, the “soluble on expression in E. coli” value is listed as “not soluble”.
Consider “MSSHESLFDYEATLQACARGEKQALQRLYLQESARLLGVAQRLVRDSALAEDIVHDAFLKIWTHAASFDASRGSARGWIFSVTRHLALNTLRNTAREVRVEDDGSDDHHEQATLEGWQETGDAFDWRVNPGRMISCMEQLEPVRRNCIFHAYVDGYSHQEIAQKIGAPLGTVKAWIKRSLTALRECMG”, for which the “soluble on expression in E. coli” value is “not soluble”.
Turning to “MEFIVCNGCGCSPSKRQFFITACSHVFCETCRTTPTADFCHLCKIPTKTLKMDASLPKNVKKMFGDVGVMSTDIHKRLARVIGFQKIQKSIQLKMENKKSVMRKEQTKKVEKKTEEMHCQLSKLTSFEENNRKKLEDIERENEKLRNLISALELKVASSRDIDDDEFFMQGTPTSSNPSVAGSDVDNDELLDYDLLGLRNRSDSSSSNCSSQSNRGGSLF”, the “soluble on expression in E. coli” value was “not soluble”.

Values taken from the DeepSol protein solubility set.
